The labels stand for the following.
B1: target 2 MT 5'PFS GAA 3'PFS AAG (mixed)
RNA 1: CACCCGUGCAAAAUUGCAGGGGUCUAAAACCUUCUCCAAAUUGUUUCAUCCU
RNA 2: GGGAAUGGAUCCACAUCUACGAAUUCGAAAGGAUGAAACAAUUUGGAGAAGAAGAGAUCGGAAGAGCACACGU
B2: target 2 MT 5'PFS UAG 3'PFS AUA (mixed)
RNA 1: CACCCGUGCAAAAUUGCAGGGGUCUAAAACCUUCUCCAAAUUGUUUCAUCCU
RNA 2: GGGAAUGGAUCCACAUCUACGAAUUCUAGAGGAUGAAACAAUUUGGAGAAGAUAAGAUCGGAAGAGCACACGU
B3: target 2 MT 5'PFS GAA 3'PFS AAC (mixed)
RNA 1: CACCCGUGCAAAAUUGCAGGGGUCUAAAACCUUCUCCAAAUUGUUUCAUCCU
RNA 2: GGGAAUGGAUCCACAUCUACGAAUUCGAAAGGAUGAAACAAUUUGGAGAAGAACAGAUCGGAAGAGCACACGU
B4: target 2 MT 5'PFS UGU 3'PFS UUU (mixed)
RNA 1: CACCCGUGCAAAAUUGCAGGGGUCUAAAACCUUCUCCAAAUUGUUUCAUCCU
RNA 2: GGGAAUGGAUCCACAUCUACGAAUUCUGUAGGAUGAAACAAUUUGGAGAAGUUUAGAUCGGAAGAGCACACGU
B5: target 2 MT 5'PFS GAA 3'PFS AAA (mixed)
RNA 1: CACCCGUGCAAAAUUGCAGGGGUCUAAAACCUUCUCCAAAUUGUUUCAUCCU
RNA 2: GGGAAUGGAUCCACAUCUACGAAUUCGAAAGGAUGAAACAAUUUGGAGAAGAAAAGAUCGGAAGAGCACACGU
B6: target 2 MT 5'PFS AUG 3'PFS CCG (mixed)
RNA 1: CACCCGUGCAAAAUUGCAGGGGUCUAAAACCUUCUCCAAAUUGUUUCAUCCU
RNA 2: GGGAAUGGAUCCACAUCUACGAAUUCAUGAGGAUGAAACAAUUUGGAGAAGCCGAGAUCGGAAGAGCACACGU
B7: target 2 MT 5'PFS GUG 3'PFS CGG (mixed)
RNA 1: CACCCGUGCAAAAUUGCAGGGGUCUAAAACCUUCUCCAAAUUGUUUCAUCCU
RNA 2: GGGAAUGGAUCCACAUCUACGAAUUCGUGAGGAUGAAACAAUUUGGAGAAGCGGAGAUCGGAAGAGCACACGU
B8: target 2 MT 5'PFS AUG 3'PFS CCU (mixed)
RNA 1: CACCCGUGCAAAAUUGCAGGGGUCUAAAACCUUCUCCAAAUUGUUUCAUCCU
RNA 2: GGGAAUGGAUCCACAUCUACGAAUUCAUGAGGAUGAAACAAUUUGGAGAAGCCUAGAUCGGAAGAGCACACGU
B9: target 2 MT 5'PFS UAG 3'PFS AUG (mixed)
RNA 1: CACCCGUGCAAAAUUGCAGGGGUCUAAAACCUUCUCCAAAUUGUUUCAUCCU
RNA 2: GGGAAUGGAUCCACAUCUACGAAUUCUAGAGGAUGAAACAAUUUGGAGAAGAUGAGAUCGGAAGAGCACACGU
B10: target 2 MT 5'PFS GUG 3'PFS CGA (mixed)
RNA 1: CACCCGUGCAAAAUUGCAGGGGUCUAAAACCUUCUCCAAAUUGUUUCAUCCU
RNA 2: GGGAAUGGAUCCACAUCUACGAAUUCGUGAGGAUGAAACAAUUUGGAGAAGCGAAGAUCGGAAGAGCACACGU
B11: target 2 MT 5'PFS UAU 3'PFS AUA (mixed)
RNA 1: CACCCGUGCAAAAUUGCAGGGGUCUAAAACCUUCUCCAAAUUGUUUCAUCCU
RNA 2: GGGAAUGGAUCCACAUCUACGAAUUCUAUAGGAUGAAACAAUUUGGAGAAGAUAAGAUCGGAAGAGCACACGU
B12: target 2 MT 5'PFS GGG 3'PFS UAG (mixed)
RNA 1: CACCCGUGCAAAAUUGCAGGGGUCUAAAACCUUCUCCAAAUUGUUUCAUCCU
RNA 2: GGGAAUGGAUCCACAUCUACGAAUUCGGGAGGAUGAAACAAUUUGGAGAAGUAGAGAUCGGAAGAGCACACGU
B13: target 2 MT 5'PFS CAG 3'PFS CCA (mixed)
RNA 1: CACCCGUGCAAAAUUGCAGGGGUCUAAAACCUUCUCCAAAUUGUUUCAUCCU
RNA 2: GGGAAUGGAUCCACAUCUACGAAUUCCAGAGGAUGAAACAAUUUGGAGAAGCCAAGAUCGGAAGAGCACACGU
B14: target 2 MT 5'PFS AAU 3'PFS CCA (mixed)
RNA 1: CACCCGUGCAAAAUUGCAGGGGUCUAAAACCUUCUCCAAAUUGUUUCAUCCU
RNA 2: GGGAAUGGAUCCACAUCUACGAAUUCAAUAGGAUGAAACAAUUUGGAGAAGCCAAGAUCGGAAGAGCACACGU
B15: target 2 MT 5'PFS UAG 3'PFS AUC (mixed)
RNA 1: CACCCGUGCAAAAUUGCAGGGGUCUAAAACCUUCUCCAAAUUGUUUCAUCCU
RNA 2: GGGAAUGGAUCCACAUCUACGAAUUCUAGAGGAUGAAACAAUUUGGAGAAGAUCAGAUCGGAAGAGCACACGU
B16: target 2 MT 5'PFS GUG 3'PFS CGC (mixed)
RNA 1: CACCCGUGCAAAAUUGCAGGGGUCUAAAACCUUCUCCAAAUUGUUUCAUCCU
RNA 2: GGGAAUGGAUCCACAUCUACGAAUUCGUGAGGAUGAAACAAUUUGGAGAAGCGCAGAUCGGAAGAGCACACGU
B17: target 2 MT 5'PFS UAG 3'PFS AUU (mixed)
RNA 1: CACCCGUGCAAAAUUGCAGGGGUCUAAAACCUUCUCCAAAUUGUUUCAUCCU
RNA 2: GGGAAUGGAUCCACAUCUACGAAUUCUAGAGGAUGAAACAAUUUGGAGAAGAUUAGAUCGGAAGAGCACACGU
B18: target 2 MT 5'PFS AUG 3'PFS CCA (mixed)
RNA 1: CACCCGUGCAAAAUUGCAGGGGUCUAAAACCUUCUCCAAAUUGUUUCAUCCU
RNA 2: GGGAAUGGAUCCACAUCUACGAAUUCAUGAGGAUGAAACAAUUUGGAGAAGCCAAGAUCGGAAGAGCACACGU
B19: target 2 MT 5'PFS CAC 3'PFS AGU (mixed)
RNA 1: CACCCGUGCAAAAUUGCAGGGGUCUAAAACCUUCUCCAAAUUGUUUCAUCCU
RNA 2: GGGAAUGGAUCCACAUCUACGAAUUCCACAGGAUGAAACAAUUUGGAGAAGAGUAGAUCGGAAGAGCACACGU
B20: target 2 MT 5'PFS UAU 3'PFS AUG (mixed)
RNA 1: CACCCGUGCAAAAUUGCAGGGGUCUAAAACCUUCUCCAAAUUGUUUCAUCCU
RNA 2: GGGAAUGGAUCCACAUCUACGAAUUCUAUAGGAUGAAACAAUUUGGAGAAGAUGAGAUCGGAAGAGCACACGU
B21: target 2 MT 5'PFS UGA 3'PFS CAC (mixed)
RNA 1: CACCCGUGCAAAAUUGCAGGGGUCUAAAACCUUCUCCAAAUUGUUUCAUCCU
RNA 2: GGGAAUGGAUCCACAUCUACGAAUUCUGAAGGAUGAAACAAUUUGGAGAAGCACAGAUCGGAAGAGCACACGU
B22: target 2 MT 5'PFS GGG 3'PFS UAU (mixed)
RNA 1: CACCCGUGCAAAAUUGCAGGGGUCUAAAACCUUCUCCAAAUUGUUUCAUCCU
RNA 2: GGGAAUGGAUCCACAUCUACGAAUUCGGGAGGAUGAAACAAUUUGGAGAAGUAUAGAUCGGAAGAGCACACGU
B23: target 2 MT 5'PFS GGG 3'PFS UAC (mixed)
RNA 1: CACCCGUGCAAAAUUGCAGGGGUCUAAAACCUUCUCCAAAUUGUUUCAUCCU
RNA 2: GGGAAUGGAUCCACAUCUACGAAUUCGGGAGGAUGAAACAAUUUGGAGAAGUACAGAUCGGAAGAGCACACGU
B24: target 1 insA 3' of 13,insU 3' of 13 (mixed)
RNA 1: CACCCGUGCAAAAAUGCAGGGGUCUAAAACUGAGCGGAUAACCUCUCUAUGG
RNA 2: GGGAAUGGAUCCACAUCUACGAAUUCGUACCAUAGAGAGAUGUUAUCCGCUCACCGAGAUCGGAAGAGCACACGU
B25: target 1 insG 3' of 20,insU 3' of 7 (mixed)
RNA 1: CACCCGUGCAAAAAUGCAGGGGUCUAAAACUGAGCGGAUAACCUCUCUAUGG
RNA 2: GGGAAUGGAUCCACAUCUACGAAUUCGUACCAGUAGAGAGGUUAUCUCGCUCACCGAGAUCGGAAGAGCACACGU
B26: target 1 insU 3' of 13,insG 3' of 7 (mixed)
RNA 1: CACCCGUGCAAAAAUGCAGGGGUCUAAAACUGAGCGGAUAACCUCUCUAUGG
RNA 2: GGGAAUGGAUCCACAUCUACGAAUUCGUACCAUAGAGAGUGUUAUCGCGCUCACCGAGAUCGGAAGAGCACACGU
B27: target 1 complement block 1-14 (mixed)
RNA 1: CACCCGUGCAAAAAUGCAGGGGUCUAAAACUGAGCGGAUAACCUCUCUAUGG
RNA 2: GGGAAUGGAUCCACAUCUACGAAUUCGUACCAUAGAGUCCAAUAGGCGAGUCCGAGAUCGGAAGAGCACACGU

The target of the data set is T1, EsCas13d, nuclease-dead (Eubacterium siraeum, UniProt B0MS50, R295A;H300A;R849A;H854A).
T1 sequence: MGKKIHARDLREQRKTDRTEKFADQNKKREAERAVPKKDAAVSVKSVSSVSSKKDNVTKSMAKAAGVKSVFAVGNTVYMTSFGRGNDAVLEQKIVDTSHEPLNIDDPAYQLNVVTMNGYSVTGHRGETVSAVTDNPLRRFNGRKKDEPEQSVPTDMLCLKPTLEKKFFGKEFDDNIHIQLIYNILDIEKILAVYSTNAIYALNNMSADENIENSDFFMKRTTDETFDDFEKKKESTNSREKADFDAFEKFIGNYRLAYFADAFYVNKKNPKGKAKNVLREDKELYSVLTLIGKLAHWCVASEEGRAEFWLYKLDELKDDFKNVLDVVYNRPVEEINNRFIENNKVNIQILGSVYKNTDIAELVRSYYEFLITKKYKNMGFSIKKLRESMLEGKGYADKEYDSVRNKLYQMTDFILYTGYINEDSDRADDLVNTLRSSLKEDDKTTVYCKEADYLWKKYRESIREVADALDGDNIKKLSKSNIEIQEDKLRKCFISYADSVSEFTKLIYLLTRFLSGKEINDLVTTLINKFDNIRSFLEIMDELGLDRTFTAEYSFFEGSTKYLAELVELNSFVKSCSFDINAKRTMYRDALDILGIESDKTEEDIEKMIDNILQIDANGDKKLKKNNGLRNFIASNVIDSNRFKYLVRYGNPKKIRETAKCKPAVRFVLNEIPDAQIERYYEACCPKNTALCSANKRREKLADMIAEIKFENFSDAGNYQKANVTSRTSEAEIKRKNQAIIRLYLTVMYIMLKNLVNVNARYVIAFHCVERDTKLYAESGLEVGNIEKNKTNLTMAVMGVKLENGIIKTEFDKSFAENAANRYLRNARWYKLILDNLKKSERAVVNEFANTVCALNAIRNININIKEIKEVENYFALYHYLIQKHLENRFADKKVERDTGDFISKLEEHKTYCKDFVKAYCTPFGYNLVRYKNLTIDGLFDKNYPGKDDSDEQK
Description: crRNA (strand 1, pre-loaded); Mg2+; 40 mM Tris-HCl pH 7.5, 150 mM NaCl, 6 mM MgCl2, 1 mM DTT, 0.1% Tween-20, 0.2 mg/ml BSA; 25 C; 10 min per concentration, then washed. The settings on record: tags: His6-TwinStrep-SUMO cleaved; N-terminal SNAP kept (SNAP-Surface 488); label: 3' end held by stalled T7 RNA polymerase.
Molecule B1 yielded a Kd of 8.2 ± 2.1 nM.
In turn, B2 returned a Kd of 2.63 ± 0.33 nM.
With B3 the figure was 11 ± 1.6 nM; with B4, 50 ± 13 nM; with B5, 5.7 ± 1.1 nM.
With B6 the figure was 9.5 ± 1.1 nM.
The molecule B7 had a Kd of 12.5 ± 1 nM.
In turn, B8 gave a Kd of approximately 70 nM.
Turning to B9, the Kd was found to be 3.21 ± 0.28 nM.
As to B10, the Kd was found to be 12.8 ± 1.6 nM.
Regarding B11, the Kd was found to be 41 ± 7 nM.
With B12 the figure was 8 ± 0.6 nM; with B13, 10.1 ± 1.4 nM; with B14, 24 ± 12 nM.
Consider B15, for which the Kd was 3.3 ± 0.7 nM.
B16 showed a Kd of 9.5 ± 0.4 nM.
Take B17: the Kd was 2.93 ± 0.34 nM.
As to B18, the affinity, expressed as Kd, was 23.7 ± 3.5 nM.
For B19, the affinity, expressed as Kd, was 2.7 ± 0.6 nM.
As to B20, the Kd was found to be 45 ± 9 nM.
With B21 the figure was 15 ± 4 nM.
Molecule B22 displayed a Kd of 9.6 ± 1 nM.
In turn, B23 had a Kd of 9.6 ± 0.7 nM.
With B24 the figure was 14.2 ± 1.3 nM; with B25, 90 ± 40 nM.
For B26, the Kd worked out at 9.5 ± 0.5 nM.
B27: the Kd is approximately 100 nM.

What is called Kd is the free concentration of one partner at which half of the binding sites on the other are occupied at equilibrium, for simple one-to-one binding. A high value points to lower affinity.

(Values after PMC10786891, “Massively parallel profiling of RNA-targeting CRISPR-Cas13d”.)
